# Measured values as given in the domain aggregation screens of Martell et al. (2025).
# Assay: soluble fraction after stress (log2 fold change); higher = more stays soluble; pooled small domains, quantitative proteomics
# Details: stress: pH 4
# Method in brief: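 High-throughput quantitative proteomics was run on pooled custom libraries of small protein domains following pH 4 stress. Fold changes are on a log2 scale; higher values mean more of a domain remained soluble. The fold change in soluble amount is taken as a measure of aggregation propensity.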
row,Sequence,soluble fraction (log2)
1,HMNTLLYAPKVSPNPFTPNADGINDVVNISYKLLRVISAVPISVEVFDLSGRLIKTLYSGVDPLGEY,0.425
2,HMNTLPASVQPKKGRLYAVIQTKENGKSKPVWRSLGLPEGSNKSKVNKAFREVVKQFEEEYAERLAR,0.22
3,HMNTLPTDELMKYGIINEDLSFSKKLNADDIQKFLQGYTIVADNDKNRATFQLTENNTKLKVIFLER,-1.69
4,HMNTLRFPEGTPEKDRMSIILASYNSGIGHVNDARRLARLNGEDPNSWEVVARYLQLKAQPEYYESEAVK,-0.548
5,HMNTPAENFDKAVEKYKSTNSATEKDAAFKVIEDEWIKLSDEEKKERQDEYDSIFESEGDRV,0.22
6,HMNTQGWEIFEGRITTADTDLNPSGWIRIDGQRIFVISDAGFIDKGKEVSILSVDGNRVLVRK,-0.632
7,HMNTSMIEHMDKSTFIRFVFTNPVTHDQAVAKLMEKHMWFSTEEKAEAEIDKLLNKTNSLIESGGKLTW,0.22
8,HMNTTLQLDTILRLEKNAHLLENFVRAGFTDSELGKLTDADLLQIGVPKIGDRRRLLAALAERAH,-0.29
9,HMNTVSPAVSAQLRQELGGELNNANFQQLQQYLQAGQRDEAIVYLTSLGIESPRAVSIVNNAMDQIG,0.00938
10,HMNVDIVEITKNSSPNQISKVIDIGAIQIVEDLMSFGIMKAIDTPLEDSEIEQLLEKYNLIVDLIE,-2.19
11,HMNVDSIPGKSGIVTQGIDNLKAMGRVTVNGMEWTARSKDGSLIEEGKVVRVYGVEGVKLIVEED,-0.72
12,HMNVDSLPGEKAVVIKTIDNLRGTGQAVVNGLEWSAKSKDETIIDEGKVVRIVAVEGVKLVVEEE,-0.252
13,HMNVEALIGREGRVTDKIEANGYGRVKVDGDSWKAKSANGAEIRQNTDVRILSIDSVIITVEP,0.22
14,HMNVESLVGKQVIVSETIDNLKATGQVKVNGLEWTARAADETDIIPQGTEVTINEVSGVKLIVSR,0.0287
15,HMNVESMVGKQGKVVVEIDNISAKGMIKVDGMEWTARSVDGEIIPKDSLVAVVSVEGVKAMVRKAE,0.15
16,HMNVGKRLKSLREKYKFSLEEVAKKIKSSAGAISRYENNERKINSESLIRLSNLYNVSPEYILYG,0.391
17,HMNVKQALLELMQRKPELTGSAIARAIGYSPAVISQYLKDGYPGDVVKLTTLIGDFIRRIDEKERS,-0.48
18,HMNVKVYATIDGDNFKVSGLKPGSNVRVYSSNGSAVFEKKAGDSEMIIPAGAWTKGIYVISADDQSIKVT,-0.0844
19,HMNVLGQTAIVRSLRLDATFGEVLLADGGAGLIFKARTHGDETFKKGDRVVLLEYLKDQHAYRVISETDFL,-1.18

row,Sequence,soluble fraction (log2)
1,HMNVLLGISELSHATGVTPAQLRYWVSQGYIKNYGSNKKNKFSLETVFMVRSIKIFQNQGYTLSASAKRAA,-0.285
2,HMNVNFVQANLANLPNIQAIYQKGNEMLNDMKRGEAREIDEAYSRVDNGVGTEKDFKVLLSFRDKIIAAMQ,≥ 0.43
3,HMNVNSMIGKEGRVIEDIDNFNETGRIIVDGMEWTARAVNEQSITSGQKVVIREIQGVKAMVVPM,-0.299
4,HMNVNTNTILKSLMETYPDSTVFKKAEIVSIANSLGFKKSDYSPLTSTDNRTDVRGQYDLSAVIIPMRESN,-0.11
5,HMNVPYEMVTQNGEVFYKYKVQPGEGVFAVSRTFSVSVAEILRVNPEANKGLKNGQVLLIPVPKDMIA,-0.147
6,HMNVVGAKGRIIKISSSEEKMAVAEIEGHGEWNIRTNSEIELFVGKSVEVIEMKGNYLLVNQI,-1.81
7,HMNVWESVDLRQEQHEAKRRLILKQAALLFADRGFHETTIDQIAEALNVTKPTIYYYIESKEDLLYQVA,-0.369
8,HMNWQLITDPKELRELVQKTIADNEAGTSRLREGDMGPLEFLTGIIMKKTRGLADPTMVKALLKEELNI,0.0177
9,HMNYEFLEKIGFSSNEAKVYGTLIKHKVLNGYEIAKLSGVARSLVYEVINRLVAKGAVIRIDGEPNFYKP,-0.236
10,HMNYHDTLSYLMDAFGGADNLQKLLGVGPSALSNYRRREHLPLNQARKLSNIAPEFGFNLDPYTLKISVID,-0.588
11,HMNYKLESYLKKVDDQLNFIPVSDKADILSELKNTFYERLLNGQTEEEILDEMESPRELALSYMSES,-1.38
12,HMNYTYTVPEGIRYLRADKALALAFPDHSRTALQRAFDSGLVTLRGVAIKRDQSVTALDTLEFAMPDI,-0.675
13,HMNYVFVLNEHGVRQTSYVVGLHADTLEKTEKLAKQTYPTSTIISGDSEMQSQFISGKAYVNGEFVDP,-0.192
14,HMPAFWILAVLAGGRRHGYQIMREAALSSEGLVTLKPTTLYAALERLERDGAIQQDGEEIVDGRVRRYYRI,-0.305
15,HMPAKDAEFTAFVRSATPTLTRTAYLLTGDRETASDLVQEAFVRTYLAWRRVRPEEATAYTRRVLVN,0.22
16,HMPAPMISIQLNGEPRNVQPGISIAALVREIGLEPAKVAVERNREIVPRSTLGDVLIEAGDQLEIVHFVG,0.0156
17,HMPAQPEPYNNLARLYSAQGKLDQAASLLRAGLYTDPAYRALFDNLTRIYAEQAARSLSAALD,-0.879
18,HMPASDPNEKQILRFLTEHQVITRKETQALLDVSQSTAGRVLKAMVDNGQIKQLGGSRNTRYELPM,0.149
19,HMPASGISSEIIYDGILIEENLRQLKKDKAWLMDQLKKKGISSVSEVFLATLNKGGSLYIDKY,-0.0537
